Test results published in patent US8822645B2, “Prostaglandin E2 dual variable domain immunoglobulins and uses thereof” (AbbVie Inc., priority 2008, dated 2014).

How the values were obtained:
[1] = PGE2-biotinamide ELISA (PGE2 binding); conditions: PGE2 VD in C-terminal position, read-out: Direct Bind ELISA C-terminal VD EC50
Outline: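 Antibody or DVD-Ig (1 µg/ml) captured on anti-host Fc IgG-coated plates for 1 h at room temperature, then titrated with PGE2-biotinamide serially diluted from 30 nM for 1 h. Binding detected with streptavidin-polyHRP and TMB, absorbance read at 450 nm; EC50 from the titration curve.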

target antigen = assay: BIACORE affinity determination of parent antibodies and DVD-Ig constructs; format: binding; conditions: antigen IL-6R, 25° C.
Method: The BIACORE assay (Biacore, Inc, Piscataway, N.J.) determines the affinity of antibodies or DVD-Ig with kinetic measurements of on-rate and off-rate constants. […] All chemicals are obtained from Biacore® AB (Uppsala, Sweden) or otherwise from a different source as described in the text. For example, approximately 5000 RU of goat anti-mouse IgG, (Fcγ), fragment specific polyclonal antibody (Pierce Biotechnology Inc, Rockford, Ill.) diluted in 10 mM sodium acetate (pH 4.5) is directly immobilized across a CM5 research grade biosensor chip using a standard amine coupling kit according to manufacturer's instructions and procedures at 25 μg/ml. Unreacted moieties on the biosensor surface are blocked with ethanolamine. Modified carboxymethyl dextran surface in flowcell 2 and 4 is used as a reaction surface. Unmodified carboxymethyl dextran without goat anti-mouse IgG in flow cell 1 and 3 is used as the reference surface. For kinetic analysis, rate equations derived from the 1:1 Langmuir binding model are fitted simultaneously to association and dissociation phases of all eight injections (using global fit analysis) with the use of Biaevaluation 4.0.1 software. Purified antibodies or DVD-Ig are diluted in HEPES-buffered saline for capture across goat anti-mouse IgG specific reaction surfaces. Antibodies or DVD-Ig to be captured as a ligand (25 μg/ml) are injected over reaction matrices at a flow rate of 5 μl/min. The association and dissociation rate constants, kon (M^−1 s^−1) and koff (s^−1) are determined under a continuous flow rate of 25 μl/min. Rate constants are derived by making kinetic binding measurements at different antigen concentrations ranging from 10-200 nM. The equilibrium dissociation constant (M) of the reaction between antibodies or DVD-Igs and the target antigen is then calculated from the kinetic rate constants by the following formula: KD=koff/kon. Binding is recorded as a function of time and kinetic rate constants are calculated. In this assay, on-rates as fast as 10^6 M^−1 s^−1 and off-rates as slow as 10^−6 s^−1 can be measured.

[2] = system: stable cell lines overexpressing a cell-surface antigen of interest or human tumor cell lines; assay: Flow cytometry (FACS) binding to cell surface antigen; format: cell-based; conditions: IL-6R VD in N-terminal position; 2 μg/mL
Method: Stable cell lines overexpressing cell-surface antigen of interest or human tumor cell lines were harvested from tissue culture flasks and resuspended in phosphate buffered saline (PBS) containing 5% fetal calf serum (PBS/FCS). Prior to staining, human tumor cells were incubated on ice with human IgG at 200 μg/ml in PBS/FCS. 1-5×10^5 cells were incubated with antibody or DVD-Ig (1-2 μg/mL) in PBS/FCS for 30-60 minutes on ice. […] After 30 minutes incubation on ice, cells were washed twice and resuspended in PBS/FCS. Fluorescence was measured using a Becton Dickinson FACSCalibur (Becton Dickinson, San Jose, Calif.).
Stable cell lines overexpressing a cell-surface antigen of interest or human tumor cell lines were harvested from tissue culture flasks and resuspended in phosphate buffered saline (PBS) containing 5% fetal bovine serum (PBS/FBS). Prior to staining, human tumor cells were incubated on ice with (100 μl) human IgG at 5 μg/ml in PBS/FCS. 1-5×10^5 cells were incubated with antibody or DVD-Ig (2 μg/mL) in PBS/FBS for 30-60 minutes on ice. […] After 30 minutes incubation on ice, cells were washed twice and resuspended in PBS/FBS. Fluorescence was measured using a Becton Dickinson FACSCalibur (Becton Dickinson, San Jose, Calif.).
The geometric mean is the n root of the multiplication product of n fluorescent signals (a1×a2×a3 . . . an). […]

B1: DVD152: DVD-Ig construct listed in Table 4 (antibody)
VH: EVQLQESGPGLVRPSQTLSLTCTVSGYSITSDHAWSWVRQPPGRGLEWIGYISYSGITTYNPSLKSRVTMLRDTSKNQFSLRLSSVTAADTAVYYCARSLARTTAMDYWGQGSLVTVSSASTKGPEVQLVQSGAEVKKPGASVKVSCKASGYTFTKYWLGWVRQAPGQGLEWMGDIYPGYDYTHYNEKFKDRVTLTTDTSTSTAYMELRSLRSDDTAVYYCARSDGSSTYWGQGTLVTVSS
VL: DIQMTQSPSSLSASVGDRVTITCRASQDISSYLNWYQQKPGKAPKLLIYYTSRLHSGVPSRFSGSGSGTDFTFTISSLQPEDIATYYCQQGNTLPYTFGQGTKVEIKRTVAAPDVLMTQTPLSLPVTPGEPASISCTSSQNIVHSNGNTYLEWYLQKPGQSPQLLIYKVSNRFSGVPDRFSGSGSGTDFTLKISRVEAEDVGVYYCFQVSHVPYTFGGGTKVEIKR
EC50 [1]: 1.65 nM | koff (target antigen; IL-6R binding by C-terminal domain): 0.00015 s⁻¹ | koff (target antigen; IL-6R binding by N-terminal domain): 0.000115 s⁻¹ | FACS Geometric Mean N-terminal [2]: 9.13
